Test results from patent US20180371086A1 (Gilead, published 2018).

Columns and labels:
Test in all cases: cell-based or functional assay
[1] = molecular target: HIV-1 Env of the lab adapted HIV-1 BaL strain (HIV-1)
[2] = molecular target: HIV-1 Env of subtype B isolate 93HT593 (HIV-1)
[3] = molecular target: HIV-1 Env of subtype B isolate 92US657 (HIV-1)
[4] = molecular target: HIV-1 Env of subtype B isolate 92US712 (HIV-1)
[5] = molecular target: HIV-1 Env of subtype B isolate 92US727 (HIV-1)
[6] = molecular target: HIV-1 Env of subtype B isolate MGRM-B-106 (HIV-1)
[7] = molecular target: HIV-1 Env of subtype B isolate MGRM-B-112 (HIV-1)
[8] = molecular target: HIV-1 Env of subtype B isolate MGRM-B-136 (HIV-1)
[9] = molecular target: HIV-1 Env of subtype B isolate MGRM-B-105 (HIV-1)
[10] = molecular target: HIV-1 Env of subtype B isolate MGRM-B-132 (HIV-1)
[11] = molecular target: HIV-1 Env of subtype B isolate MGRM-B-110 (HIV-1)
[12] = molecular target: HIV-1 Env of subtype B isolate MGRM-B-115 (HIV-1)
[13] = molecular target: HIV-1 Env of subtype B isolate MGRM-B-111 (HIV-1)
[14] = molecular target: HIV-1 Env of subtype B isolate MGRM-B-118 (HIV-1)
[15] = molecular target: HIV-1 Env of subtype B virus 15-124986 (HIV-1)
[16] = molecular target: HIV-1 Env of subtype B virus 15-124918 (HIV-1)
[17] = molecular target: HIV-1 Env of subtype B virus 15-124914 (HIV-1)
[18] = molecular target: HIV-1 Env of subtype B virus 15-124964 (HIV-1)
[19] = molecular target: HIV-1 Env of subtype B virus 15-124906 (HIV-1)
[20] = molecular target: HIV-1 Env of subtype B virus 15-124904 (HIV-1)
[21] = molecular target: HIV-1 Env of subtype B virus 15-102514 (HIV-1)
[22] = molecular target: HIV-1 Env of subtype B virus 15-101757 (HIV-1)
[23] = molecular target: HIV-1 Env of subtype B virus 15-124987 (HIV-1)
[24] = molecular target: HIV-1 Env of subtype B virus 15-124962 (HIV-1)
[25] = molecular target: HIV-1 Env of subtype B virus 15-124970 (HIV-1)
[26] = molecular target: HIV-1 Env of subtype B virus 15-124950 (HIV-1)
[27] = molecular target: HIV-1 Env of subtype B virus 15-124975 (HIV-1)
[28] = molecular target: HIV-1 Env of subtype B virus 15-124934 (HIV-1)
[29] = molecular target: HIV-1 Env of subtype B virus 15-101608 (HIV-1)
[30] = molecular target: HIV-1 Env of subtype B virus 15-124963 (HIV-1)

B1: PGT121.60 hIgG1/hLambda (antibody, V domains shown)
VH: QMQLQESGPGLVKPSETLSLTCSVSGASISDSYWSWIRRSPGKGLEWIGYVHKSGDTNYNPSLKSRVHLSLDTSKNQVSLSLTGVTAADSGKYYCARTLHGRRIYGIVAFNEWFTYFYMDVWGTGTQVTVSS
VL: SDISVAPGETARISCGEKSLGSRAVQWYQHRAGQAPSLIIYNNQDRPSGIPERFSGSPDSRPGTTATLTITSVEAGDEADYYCHIWDSRVPTKWVFGGGTTLTVLG
Neutralization potency, IC50 [1]: 0.007 µg/mL
Neutralization potency, IC50 [2]: 0.141 µg/mL
Neutralization potency, IC50 [3]: 0.062 µg/mL
Neutralization potency, IC50 [4]: 0.008 µg/mL
Neutralization potency, IC50 [5]: 0.007 µg/mL
Neutralization activity, IC50 [6]: 0.001 µg/mL
Neutralization activity, IC50 [7]: 0.0058 µg/mL
Neutralization activity, IC50 [8]: 0.0071 µg/mL
Neutralization activity, IC50 [9]: 0.0076 µg/mL
Neutralization activity, IC50 [10]: 0.0077 µg/mL
Neutralization activity, IC50 [11]: 0.0113 µg/mL
Neutralization activity, IC50 [12]: 0.141 µg/mL
Neutralization activity, IC50 [13]: 0.955 µg/mL
Neutralization activity, IC50 [14]: 3.31 µg/mL
Neutralization potency, IC50 [15]: 0.0015 µg/mL
Neutralization potency, IC50 [16]: 0.0018 µg/mL
Neutralization potency, IC50 [17]: 0.002 µg/mL
Neutralization potency, IC50 [18]: 0.0026 µg/mL
Neutralization potency, IC50 [19]: 0.0103 µg/mL
Neutralization potency, IC50 [20]: 0.0121 µg/mL
Neutralization potency, IC50 [21]: 0.0128 µg/mL
Neutralization potency, IC50 [22]: 0.0132 µg/mL
Neutralization potency, IC50 [23]: 0.0163 µg/mL
Neutralization potency, IC50 [24]: 0.0277 µg/mL
Neutralization potency, IC50 [25]: 0.0285 µg/mL
Neutralization potency, IC50 [26]: 0.0995 µg/mL
Neutralization potency, IC50 [27]: 0.105 µg/mL
Neutralization potency, IC50 [28]: 0.797 µg/mL
Neutralization potency, IC50 [29]: 1.84 µg/mL
Neutralization potency, IC50 [30]: 2.05 µg/mL
